In article PMC314469, “Protein Interaction Networks by Proteome Peptide Scanning” (PLoS Biology, 2004):

B1: Q96LM6 67-80 (peptide)
chain: GYPAFKRPHMTAKD
B2: O14842 113-126 (peptide)
chain: GYQAFRRPSYSWGV
B3: Q15427 383-397 (peptide)
chain: GYTGPPRPPPYGYQ
B4: Q9H7M8 395-408 (peptide)
chain: HALHPARPARDHLD
B5: Q96S08 292-305 (peptide)
chain: HAPRIKRPRLQVVK
B6: O60292 454-467 (peptide)
chain: HAQSLSRPLKQTPI
B7: P21675 1363-1376 (peptide)
chain: HSDYLNRPHKSIHR
B8: Q9Y5K9 654-668 (peptide)
chain: HDDPPQKPPRSITL
B9: O43158 529-542 (peptide)
chain: HGKGFSRPARPANR
B10: P21917 231-244 (peptide)
chain: HGRAPRRPSGPGPP
B11: Q02833 302-315 (peptide)
chain: ALPPPPRPDRGPPG
B12: Q99848 277-290 (peptide)
chain: HGRGLKRPGKKGSN
B13: Q9Y2L9 5-19 (peptide)
chain: HGRLPARPPFYAPA
B14: P29350 24-37 (peptide)
chain: HGSFLARPSRKNQG
B15: Q9Y4C9 401-414 (peptide)
chain: HHGRIGRPPKYRKI
B16: O60747 405-419 (peptide)
chain: HHHLPERPPFIPEG
B17: P02511 6-19 (peptide)
chain: HHPWIRRPFFPFHS
B18: P33552 65-78 (peptide)
chain: HILLFRRPLPKDQQ
B19: P33551 65-78 (peptide)
chain: HILLFRRPLPKKPK
B20: P18031 304-318 (peptide)
chain: HIPPPPRPPKRILE
B21: O60281 1125-1138 (peptide)
chain: HKAHLIRPRRLTPG
B22: O75163 275-288 (peptide)
chain: ALPRPIRPHRNISA
B23: Q9P2Q2 580-594 (peptide)
chain: HKGLPPRPPSHNRP
B24: O15488 104-117 (peptide)
chain: HLAFLKRPELGLTL
B25: Q9P2Y4 181-194 (peptide)
chain: HLHILHRPWKSGLS
B26: Q9HBK7 243-256 (peptide)
chain: HLLLFHRPLRASGA
B27: Q9H7P8 659-673 (peptide)
chain: HLSSPARPPDNLSP
B28: Q9Y6X8 414-427 (peptide)
chain: AAPEPKRPHIAQVP
B29: Q96FM3 493-506 (peptide)
chain: HLWQPKRPAVPKKA
B30: Q9BXK1 213-226 (peptide)
chain: HPDLLRRPGARSTS
B31: P17812 526-539 (peptide)
chain: HPEFLSRPIKPSPP
B32: P10163 94-108 (peptide)
chain: HPGKPERPPPQGGN
B33: P54368 201-214 (peptide)
chain: HPLVPKRPDASFMA
B34: O43763 237-251 (peptide)
chain: ALPRPLRPPLPPDP
B35: Q9NWA6 173-186 (peptide)
chain: HQEKPERPLRGGKS
B36: Q8WWE0 14-27 (peptide)
chain: HRSHLRRPAAPPSP
B37: Q9H5T1 190-203 (peptide)
chain: HSFLINRPGKVKYM
B38: P28749 775-788 (peptide)
chain: HSTGINRPKRTGSL
B39: Q9H6N9 66-79 (peptide)
chain: HTAEFRRPMATGDT
B40: Q9BXU7 768-781 (peptide)
chain: HTKNLLRPTKLNLQ
B41: O14791 6-19 (peptide)
chain: HTVELRRPSSDMEG
B42: O75354 116-129 (peptide)
chain: HVFQFTRPPRETPT

Assays:
[1] = biological target: T1, amphyphisin SH3 (AMPH_HUMAN), P49418; assay: SPOT array
T1 chain: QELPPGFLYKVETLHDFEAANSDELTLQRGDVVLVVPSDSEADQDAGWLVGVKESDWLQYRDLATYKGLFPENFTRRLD

[2] = biological target: endophilin SH3 (SH3G2_HUMAN), Q99962; assay: SPOT array

| Binder | normalised SPOT signal, Boehringer light units (BLU); mean over the file's lines of this peptide [1] | normalised SPOT signal, Boehringer light units (BLU); mean over the file's lines of this peptide [2] |
| --- | --- | --- |
| B1 | 31.1 | 97.4 |
| B2 | 35 | 229 |
| B3 | 61.8 | 577 |
| B4 | 4580 | 1270 |
| B5 | 36.2 | 33.2 |
| B6 | 58.3 | 153 |
| B7 | 116 | 89.2 |
| B8 | 8230 | 133 |
| B9 | 3230 | 5.2 |
| B10 | 35.4 | 11100 |
| B11 | 847 | 4520 |
| B12 | 26 | 71.6 |
| B13 | 33.8 | 775 |
| B14 | 2390 | 308 |
| B15 | 160 | 150 |
| B16 | 18 | 22.2 |
| B17 | 17.6 | 1870 |
| B18 | 12.1 | 40 |
| B19 | 34.4 | 153 |
| B20 | 3540 | 4140 |
| B21 | 1070 | 1790 |

| Binder | normalised SPOT signal, Boehringer light units (BLU); mean over the file's lines of this peptide [1] | normalised SPOT signal, Boehringer light units (BLU); mean over the file's lines of this peptide [2] |
| --- | --- | --- |
| B22 | 7780 | 5490 |
| B23 | 326 | 5020 |
| B24 | 36.5 | 28.8 |
| B25 | 217 | 28.3 |
| B26 | 1690 | 33.5 |
| B27 | 95.5 | 76.9 |
| B28 | 7.5 | 108 |
| B29 | 17.3 | 816 |
| B30 | 29.9 | 0.2 |
| B31 | 75.1 | 45.5 |
| B32 | 57.4 | 794 |
| B33 | 125 | 1970 |
| B34 | 553 | 3470 |
| B35 | 9960 | 2060 |
| B36 | 58 | 55.2 |
| B37 | 202 | 117 |
| B38 | 2890 | 224 |
| B39 | 45.7 | 18.7 |
| B40 | 110 | 61.7 |
| B41 | 50.5 | 27.4 |
| B42 | 4870 | 171 |
